Measurements from US20240360227A1.

Columns and labels:
[1] = target: Recombinant human his-tagged IGF R extracellular domain protein (human) (UniProt P08069); assay: SPR, Ab captured via anti-huIgG Fc, dissociation at pH 6
[2] = target: Recombinant human his-tagged IGF R extracellular domain protein (human) (UniProt P08069); assay: SPR, Ab captured via anti-huIgG Fc, pH 7.4

| Kd [1] [nM] | koff [1] [s⁻¹] | kon [1] [M⁻¹ s⁻¹] | Kd [2] [nM] | koff [2] [s⁻¹] | kon [2] [M⁻¹ s⁻¹] | Binder |
| --- | --- | --- | --- | --- | --- | --- |
| 1.05 | 9.16e-05 | 86800 | 0.456 | 4.85e-05 | 106000 | VRDN-02100 (antibody, human IgG1, kappa, V domains shown) VH: QVQLQESGPGLVKPSETLSLTCTVSGYSITGGYLWNWIRQPPGKGLEWIGYISYDGTNNYKPSLKDRVTISRDTSKNQFSLKLSSVTAADTAVYYCARYGRVFFDYWGQGTLVTVSS VL: DIVMTQSPLSLPVTPGEPASISCRSSQSIVHSNGNTYLQWYLQKPGQSPQLLIYKVSNRLYGVPDRFSGSGSGTDFTLKISRVEAEDVGVYYCFQGSHVPWTFGQGTKVEIKR |
| 1.03 | 9.56e-05 | 93200 | 0.544 | 5.16e-05 | 94800 | VRDN-02020 (antibody, V domains shown) VH: QVQLQESGPGLVKPSETLSLTCTVSGYSITGGYLWNWIRQPPGKGLEWIGYISYDGTNHYKPSLKDRVTISRDTSKNQFSLKLSSVTAADTAVYYCARYGRVFFDYWGQGTLVTVSS VL: DIVMTQSPLSLPVTPGEPASISCRSSQSIVHSNGNTYLQWYLQKPGQSPQLLIYKVSNRLYGVPDRFSGSGSGTDFTLKISRVEAEDVGVYYCFQGSHVPWTFGQGTKVEIK |
| 1.2 | 0.000115 | 96000 | 0.495 | 5.1e-05 | 103000 | VRDN-02001 (antibody, V domains shown) VH: QVQLQESGPGLVKPSETLSLTCTVSHYSITGGYLWNWIRQPPGKGLEWIGYISYDGTNNYKPSLKDRVTISRDTSKNQFSLKLSSVTAADTAVYYCARYGRVFFDYWGQGTLVTVSS VL: DIVMTQSPLSLPVTPGEPASISCRSSQSIVHSNGNTYLQWYLQKPGQSPQLLIYKVSNRLYGVPDRFSGSGSGTDFTLKISRVEAEDVGVYYCFQGSHVPWTFGQGTKVEIK |
| 2.85 | 0.000121 | 42600 | 6.73 | 0.000957 | 142000 | VRDN-02027 (antibody, V domains shown) VH: QVQLQESGPGLVKPSETLSLTCTVSGYSITGGYLWNWIRQPPGKGLEWIGYISYDGTNNYKPSLKDRVTISRDTSKNQFSLKLSSVTAADTAVYYCARYGRVFFHYWGQGTLVTVSS VL: DIVMTQSPLSLPVTPGEPASISCRSSQSIVHSNGNTYLQWYLQKPGQSPQLLIYKVSNRLYGVPDRFSGSGSGTDFTLKISRVEAEDVGVYYCFQGSHVPWTFGQGTKVEIK |
| 1.38 | 0.000137 | 99200 | 0.868 | 5.84e-05 | 67300 | VRDN-02021 (antibody, V domains shown) VH: QVQLQESGPGLVKPSETLSLTCTVSGYSITGGYLWNWIRQPPGKGLEWIGYISYDGTNNYKPSLKDRVTISRDTSKNQFSLKLSSVTAADTAVYYCARHGRVFFDYWGQGTLVTVSS VL: DIVMTQSPLSLPVTPGEPASISCRSSQSIVHSNGNTYLQWYLQKPGQSPQLLIYKVSNRLYGVPDRFSGSGSGTDFTLKISRVEAEDVGVYYCFQGSHVPWTFGQGTKVEIK |
| 1.64 | 6.71e-05 | 40800 | 2.4 | 9.99e-05 | 41500 | VRDN-02026 (antibody, V domains shown) VH: QVQLQESGPGLVKPSETLSLTCTVSGYSITGGYLWNWIRQPPGKGLEWIGYISYDGTNNYKPSLKDRVTISRDTSKNQFSLKLSSVTAADTAVYYCARYGRVFHDYWGQGTLVTVSS VL: DIVMTQSPLSLPVTPGEPASISCRSSQSIVHSNGNTYLQWYLQKPGQSPQLLIYKVSNRLYGVPDRFSGSGSGTDFTLKISRVEAEDVGVYYCFQGSHVPWTFGQGTKVEIK |
|  |  |  | 8.23 | 0.000775 | 94100 | VRDN-02022 (antibody, V domains shown) VH: QVQLQESGPGLVKPSETLSLTCTVSGYSITGGYLWNWIRQPPGKGLEWIGYISYDGTNNYKPSLKDRVTISRDTSKNQFSLKLSSVTAADTAVYYCARYHRVFFDYWGQGTLVTVSS VL: DIVMTQSPLSLPVTPGEPASISCRSSQSIVHSNGNTYLQWYLQKPGQSPQLLIYKVSNRLYGVPDRFSGSGSGTDFTLKISRVEAEDVGVYYCFQGSHVPWTFGQGTKVEIK |

Second part, the binder before the results:

| Binder | Kd [1] [nM] | koff [1] [s⁻¹] | kon [1] [M⁻¹ s⁻¹] | Kd [2] [nM] | koff [2] [s⁻¹] | kon [2] [M⁻¹ s⁻¹] |
| --- | --- | --- | --- | --- | --- | --- |
| VRDN-02024 (antibody, V domains shown) VH: QVQLQESGPGLVKPSETLSLTCTVSGYSITGGYLWNWIRQPPGKGLEWIGYISYDGTNNYKPSLKDRVTISRDTSKNQFSLKLSSVTAADTAVYYCARYGRHFFDYWGQGTLVTVSS VL: DIVMTQSPLSLPVTPGEPASISCRSSQSIVHSNGNTYLQWYLQKPGQSPQLLIYKVSNRLYGVPDRFSGSGSGTDFTLKISRVEAEDVGVYYCFQGSHVPWTFGQGTKVEIK | 0.793 | 7.99e-05 | 101000 | 0.449 | 5.06e-05 | 113000 |
| VRDN-02016 (antibody, V domains shown) VH: QVQLQESGPGLVKPSETLSLTCTVSGYSITGGYLWNWIRQPPGKGLEWIGYISYHGTNNYKPSLKDRVTISRDTSKNQFSLKLSSVTAADTAVYYCARYGRVFFDYWGQGTLVTVSS VL: DIVMTQSPLSLPVTPGEPASISCRSSQSIVHSNGNTYLQWYLQKPGQSPQLLIYKVSNRLYGVPDRFSGSGSGTDFTLKISRVEAEDVGVYYCFQGSHVPWTFGQGTKVEIK | 1.31 | 0.000111 | 84300 | 0.346 | 3.39e-05 | 98000 |
| VRDN-02018 (antibody, V domains shown) VH: QVQLQESGPGLVKPSETLSLTCTVSGYSITGGYLWNWIRQPPGKGLEWIGYISYDGHNNYKPSLKDRVTISRDTSKNQFSLKLSSVTAADTAVYYCARYGRVFFDYWGQGTLVTVSS VL: DIVMTQSPLSLPVTPGEPASISCRSSQSIVHSNGNTYLQWYLQKPGQSPQLLIYKVSNRLYGVPDRFSGSGSGTDFTLKISRVEAEDVGVYYCFQGSHVPWTFGQGTKVEIK | 1.26 | 0.000108 | 85400 | 0.734 | 7.79e-05 | 106000 |
| VRDN-02019 (antibody, V domains shown) VH: QVQLQESGPGLVKPSETLSLTCTVSGYSITGGYLWNWIRQPPGKGLEWIGYISYDGTHNYKPSLKDRVTISRDTSKNQFSLKLSSVTAADTAVYYCARYGRVFFDYWGQGTLVTVSS VL: DIVMTQSPLSLPVTPGEPASISCRSSQSIVHSNGNTYLQWYLQKPGQSPQLLIYKVSNRLYGVPDRFSGSGSGTDFTLKISRVEAEDVGVYYCFQGSHVPWTFGQGTKVEIK | 1.18 | 0.000101 | 85800 | 0.549 | 5.53e-05 | 101000 |
| VRDN-02028 (antibody, V domains shown) VH: QVQLQESGPGLVKPSETLSLTCTVSGYSITGGYLWNWIRQPPGKGLEWIGYISYDGTNNYKPSLKDRVTISRDTSKNQFSLKLSSVTAADTAVYYCARYGRVFFDHWGQGTLVTVSS VL: DIVMTQSPLSLPVTPGEPASISCRSSQSIVHSNGNTYLQWYLQKPGQSPQLLIYKVSNRLYGVPDRFSGSGSGTDFTLKISRVEAEDVGVYYCFQGSHVPWTFGQGTKVEIK | 1.11 | 0.000107 | 97000 | 0.525 | 5.4e-05 | 103000 |
| VRDN-02002 (antibody, V domains shown) VH: QVQLQESGPGLVKPSETLSLTCTVSGHSITGGYLWNWIRQPPGKGLEWIGYISYDGTNNYKPSLKDRVTISRDTSKNQFSLKLSSVTAADTAVYYCARYGRVFFDYWGQGTLVTVSS VL: DIVMTQSPLSLPVTPGEPASISCRSSQSIVHSNGNTYLQWYLQKPGQSPQLLIYKVSNRLYGVPDRFSGSGSGTDFTLKISRVEAEDVGVYYCFQGSHVPWTFGQGTKVEIK | 1.11 | 9.22e-05 | 83000 | 0.992 | 0.000104 | 105000 |
| VRDN-02025 (antibody, V domains shown) VH: QVQLQESGPGLVKPSETLSLTCTVSGYSITGGYLWNWIRQPPGKGLEWIGYISYDGTNNYKPSLKDRVTISRDTSKNQFSLKLSSVTAADTAVYYCARYGRVHFDYWGQGTLVTVSS VL: DIVMTQSPLSLPVTPGEPASISCRSSQSIVHSNGNTYLQWYLQKPGQSPQLLIYKVSNRLYGVPDRFSGSGSGTDFTLKISRVEAEDVGVYYCFQGSHVPWTFGQGTKVEIK | 1.51 | 9.5e-05 | 63000 | 2.08 | 0.000141 | 68000 |
| VRDN-02059 (antibody, V domains shown) VH: QVQLQESGPGLVKPSETLSLTCTVSGYSITGGYLWNWIRQPPGKGLEWIGYIHYDGTNNYKPSLKDRVTISRDTSKNQFSLKLSSVTAADTAVYYCARYGRVFFDYWGQGTLVTVSS VL: DIVMTQSPLSLPVTPGEPASISCRSHQSIVHSNGNTYLQWYLQKPGQSPQLLIYKVSNRLYGVPDRFSGSGSGTDFTLKISRVEAEDVGVYYCFQGSHVPWTFGQGTKVEIK | 0.228 | 4.43e-05 | 194000 |  |  |  |
| VRDN-02023 (antibody, V domains shown) VH: QVQLQESGPGLVKPSETLSLTCTVSGYSITGGYLWNWIRQPPGKGLEWIGYISYDGTNNYKPSLKDRVTISRDTSKNQFSLKLSSVTAADTAVYYCARYGHVFFDYWGQGTLVTVSS VL: DIVMTQSPLSLPVTPGEPASISCRSSQSIVHSNGNTYLQWYLQKPGQSPQLLIYKVSNRLYGVPDRFSGSGSGTDFTLKISRVEAEDVGVYYCFQGSHVPWTFGQGTKVEIK | 1.23 | 8.97e-05 | 72700 | 4.4 | 0.00187 | 426000 |
| VRDN-02017 (antibody, V domains shown) VH: QVQLQESGPGLVKPSETLSLTCTVSGYSITGGYLWNWIRQPPGKGLEWIGYISYDHTNNYKPSLKDRVTISRDTSKNQFSLKLSSVTAADTAVYYCARYGRVFFDYWGQGTLVTVSS VL: DIVMTQSPLSLPVTPGEPASISCRSSQSIVHSNGNTYLQWYLQKPGQSPQLLIYKVSNRLYGVPDRFSGSGSGTDFTLKISRVEAEDVGVYYCFQGSHVPWTFGQGTKVEIK | 1.14 | 0.00011 | 96000 | 1.22 | 0.000118 | 97000 |
